Where two headings read alike, the source gives them in different places.
What was measured:
[1] = target: T1, SlyD-SlyD-tagged nucleocapsid full-length protein (EcSlyD-EcSlyD-CoV-2-N(1-419)) (SARS-CoV-2)
[2] = target: T1, SlyD-SlyD-tagged nucleocapsid …; remark: listed apart in the source
[3] = target: T1, SlyD-SlyD-tagged nucleocapsid …; assay: SPR (Biacore), captured antibody, NCP analyte, Langmuir 1:1 fit

| Binder | MR (molar ratio) [1] | koff [1] | kon [1] | t1/2 diss [1] | Kd [2] | MR (molar ratio) [3] | koff [3] | kon [3] | t1/2 diss [3] | Kd [1] | koff [2] | Kd [3] |
| --- | --- | --- | --- | --- | --- | --- | --- | --- | --- | --- | --- | --- |
| Antibody 5B6 (antibody, V domains shown, also called clone 5B6) VH: SQSVEESGGRLVTPGTPLTLTCTASGFSLSSYYMSWVRQAPGKGLEWIGVMTAGGSTFYASWAKGRFTISKTSTTVDLKITSPTTEDTATYFCARSIDTNYGSSIWGPGTLVTVSL VL: DVVMTQTPASMSEPVGGTVTIKCQASEDIYTYLSWYQQQSGQPPKVLIYAASNLASGVSSRFKGSRSGTEYTLTISDLECADAATYYCQGDYYGSNYGLGTFGGGTEVVVK | 1.7 | 0.00012 s⁻¹ | 180000 M⁻¹ s⁻¹ | 1.55 h | 0.7 nM | 1.7 | 0.00012 s⁻¹ | 180000 M⁻¹ s⁻¹ | 1.55 h | – | – | – |
| Antibody 1.1.32 (antibody, V domains shown, also called M-1.1.32; clone 1.1.32) VH: EVQLQQSGPELVKPGASVKMSCKASGYTFTTYVMHWVKQKPGQGLEWIGYSDPYNGDSKDNENFKGKATLTSDKSSSTVYMELSSLTSEDSAVYYCARGFGNYLFYFDYWGQGTTLTVSS VL: DIQMTQTTSSLSASLGDRVTISCSASQDIRDYLNWYQQKPDGTVKLLIYYTSNLHSGVPSRFSGSGSGTDYSLTISNLEPEDIATYFCQQYSKLPYTFGGGTKLEIK | 0.9 | – | 340000 M⁻¹ s⁻¹ | 9.65 h | 0.06 nM | 0.9 | – | 340000 M⁻¹ s⁻¹ | 9.65 h | 0.059 nM | 2e-05 s⁻¹ | 0.059 nM |
| Antibody 1G9 (antibody, V domains shown, also called clone 1G9) VH: SQSVEESGGRLVTPGTPLTLTCTVSGFSLSTYAVNWVRQAPGKGLEWIGVIDGSGSTYYANWAKGRFTISKASTTVDLKITSPTTEDTATYFCARGAGTDNFGNLNLWGPGTLVTVSS VL: DVVMTQTPASVEVAVGGTVTIKCQASESISSWLAWYQQKPGQPPKLLIYRASTLASGVPSRFKGSGSGTEYTLTISGVECADAATYYCQQDYSTSNIDNTFGGGTEVVVK | 1.2 | 0.00024 s⁻¹ | 200000 M⁻¹ s⁻¹ | 0.8 h | 1.2 nM | 1.2 | 0.00024 s⁻¹ | 200000 M⁻¹ s⁻¹ | 0.8 h | – | – | – |
